The source of these data is article PMC9256709.

The target in the experiment is AGL6 fused to YFP or CFP (Arabidopsis thaliana) (UniProt P29386). The experiment can be described thus: FRET or BRET; in vivo FRET on the FYL1-AGL6-AGL6-AGL15 tetramer: one CFP and one YFP fusion co-expressed with the unlabeled other members in tobacco leaf cells; steady-state FRET efficiency in nuclei.
Sequence of UniProt P29386 (P29386 whole entry, the tested form may be a part): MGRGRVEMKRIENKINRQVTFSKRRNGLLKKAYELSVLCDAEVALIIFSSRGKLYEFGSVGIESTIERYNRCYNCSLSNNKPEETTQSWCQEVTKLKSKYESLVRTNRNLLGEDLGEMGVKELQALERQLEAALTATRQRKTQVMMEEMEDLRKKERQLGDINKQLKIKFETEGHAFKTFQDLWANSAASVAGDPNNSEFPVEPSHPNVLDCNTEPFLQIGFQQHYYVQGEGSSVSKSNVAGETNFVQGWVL

Substance “FYF-like 1 (FYL1/AGL71) fused to CFP or YFP (from UniProt Q9LT93 1-207) (natural protein)” displayed an FRET efficiency (AGL6:CFP/FYL1:YFP, unlabeled AGL15 co-expressed) of 32%.
